Legend:
Experiment in all cases: cell_activity
Conditions in all cases: Cel-1 assay; activity of the TALEN pair
[1] = system: XTN TALEN 1 right monomer
[2] = system: XTN TALEN 3 right monomer
[3] = system: XTN TALEN 1 left monomer
[4] = system: XTN TALEN 2 right monomer
[5] = system: XTN TALEN 3 left monomer
[6] = system: XTN TALEN 2 left monomer

TATGCGGACCTTTATCTATGGCTGGAATTTCCTAAGTGCAGGGAGCCACA (double strand) [TALEN 1 target, right half-site]
activity [1]: 5%

TCTGCCAACCTCACATACAGTATGTGGTTTAGTCATTGAGCAAATGCA (double strand) [TALEN 3 target, right half-site]
activity [2]: 3%

TATGCGGACCTTTATCTATGGCTGGAATTTCCTAAGTGCAGGGAGCCACA (double strand) [TALEN 1 target, left half-site]
activity [3]: 5%

TGCAGTATGCGGACCTTTATCTATGGCTGGAATTTCCTAAGTGCAGGGA (double strand) [TALEN 2 target, right half-site]
activity [4]: 9%

TCTGCCAACCTCACATACAGTATGTGGTTTAGTCATTGAGCAAATGCA (double strand) [TALEN 3 target, left half-site]
activity [5]: 3%

TGCAGTATGCGGACCTTTATCTATGGCTGGAATTTCCTAAGTGCAGGGA (double strand) [TALEN 2 target, left half-site]
activity [6]: 9%

— patent US20190037818
